Paper PMC4407014 (Immunology and Cell Biology, 2014)

Target: Recombinant human CD4 (crystallisation construct) (Homo sapiens, UniProt P01730)
Experiment: crystal structure

binding result: binds
B1: Fab fragment of BT-061 (tregalizumab) (Fab, V domains shown)
VH: EEQLVESGGGLVKPGGSLRLSCAASGFSFSDCRMYWLRQAPGKGLEWIGVISVKSENYGANYAESVRGRFTISRDDSKNTVYLQMNSLKTEDTAVYYCSASYYRYDVGAWFAYWGQGTLVTVSS
VL: DIVMTQSPDSLAVSLGERATINCRASKSVSTSGYSYIYWYQQKPGQPPKLLIYLASILESGVPDRFSGSGSGTDFTLTISSLQAEDVAVYYCQHSRELPWTFGQGTKVEIK
